From paper PMC5549332 (BMC Plant Biology, 2017)

T1: GLO4 (Oryza sativa, UniProt Q6YT73)
T1 construct: gene GLO5; complete ORF, N-terminal 6xHis tag kept, expressed in Saccharomyces cerevisiae INVSc1, Ni-IDA purified, subunit about 40 kDa, homo-oligomer; GLO4/GLO5 names may be swapped in databases, go by printed locus
T1 sequence (Q6YT73 1-369): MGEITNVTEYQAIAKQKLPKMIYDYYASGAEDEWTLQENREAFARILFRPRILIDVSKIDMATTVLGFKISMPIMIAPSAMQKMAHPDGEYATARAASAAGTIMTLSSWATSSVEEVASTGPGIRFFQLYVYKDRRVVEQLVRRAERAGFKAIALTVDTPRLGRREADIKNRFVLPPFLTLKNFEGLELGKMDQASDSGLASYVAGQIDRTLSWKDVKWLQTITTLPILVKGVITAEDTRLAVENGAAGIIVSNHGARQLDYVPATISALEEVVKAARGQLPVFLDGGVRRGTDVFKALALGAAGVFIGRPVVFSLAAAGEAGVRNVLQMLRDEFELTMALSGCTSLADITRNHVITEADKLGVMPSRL

T2: GLO3 (Oryza sativa, UniProt Q7FAS1)
T2 construct: complete ORF, N-terminal 6xHis tag kept, expressed in Saccharomyces cerevisiae INVSc1, Ni-IDA purified, subunit about 40 kDa
T2 sequence (Q7FAS1 1-367): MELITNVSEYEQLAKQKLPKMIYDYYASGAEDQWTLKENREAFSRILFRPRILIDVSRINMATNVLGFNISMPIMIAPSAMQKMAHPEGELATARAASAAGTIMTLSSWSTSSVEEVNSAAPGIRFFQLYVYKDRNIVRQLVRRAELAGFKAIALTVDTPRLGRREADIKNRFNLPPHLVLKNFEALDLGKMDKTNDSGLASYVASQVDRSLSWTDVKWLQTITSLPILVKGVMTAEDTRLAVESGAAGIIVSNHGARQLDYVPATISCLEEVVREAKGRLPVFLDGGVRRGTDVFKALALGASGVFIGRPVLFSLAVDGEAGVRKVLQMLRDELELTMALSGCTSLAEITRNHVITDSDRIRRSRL

T3: GLO1 (Oryza sativa, UniProt Q10CE4)
T3 construct: complete ORF, N-terminal 6xHis tag kept, expressed in Saccharomyces cerevisiae INVSc1, Ni-IDA purified, subunit about 40 kDa, homo-oligomer
T3 sequence (Q10CE4 1-369): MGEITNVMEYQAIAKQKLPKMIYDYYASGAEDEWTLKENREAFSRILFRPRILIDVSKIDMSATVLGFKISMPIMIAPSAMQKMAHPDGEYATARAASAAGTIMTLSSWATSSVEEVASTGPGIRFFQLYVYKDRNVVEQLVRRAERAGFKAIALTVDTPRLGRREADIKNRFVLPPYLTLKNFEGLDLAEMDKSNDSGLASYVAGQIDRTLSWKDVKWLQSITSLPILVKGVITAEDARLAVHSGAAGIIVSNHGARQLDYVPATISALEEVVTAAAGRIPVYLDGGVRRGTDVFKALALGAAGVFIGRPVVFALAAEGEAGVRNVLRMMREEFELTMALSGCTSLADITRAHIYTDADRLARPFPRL

T4: GLO1 + 4 (Oryza sativa, UniProt Q10CE4+Q6YT73)
T4 construct: co-expressed N-terminally 6xHis-tagged GLO1 (pYES3) and GLO4 (pYES2) in Saccharomyces cerevisiae, Ni-IDA purified; GLO4/GLO5 names may be swapped in databases
T4 sequence (Q10CE4 1-369): T3 sequence (Q10CE4 1-369)
T4 sequence (Q6YT73 1-369): T1 sequence (Q6YT73 1-369)

B1: GLO1 (Oryza sativa Japonica Group) (protein)
chain: T3 sequence (Q10CE4 1-369)
notes: complete ORF, N-terminal 6xHis tag kept, expressed in Saccharomyces cerevisiae INVSc1, Ni-IDA purified, subunit about 40 kDa, homo-oligomer
B2: GLO1 + 4 (Oryza sativa Japonica Group) (protein)
chain 1: T3 sequence (Q10CE4 1-369)
chain 2: T1 sequence (Q6YT73 1-369)
notes: co-expressed N-terminally 6xHis-tagged GLO1 (pYES3) and GLO4 (pYES2) in Saccharomyces cerevisiae, Ni-IDA purified; GLO4/GLO5 names may be swapped in databases
B3: GLO4 (Oryza sativa Japonica Group) (protein)
chain: T1 sequence (Q6YT73 1-369)
notes: complete ORF, N-terminal 6xHis tag kept, expressed in Saccharomyces cerevisiae INVSc1, Ni-IDA purified, subunit about 40 kDa, homo-oligomer; GLO4/GLO5 names may be swapped in databases, go by printed locus
B4: GLO3 (Oryza sativa Japonica Group) (protein)
chain: T2 sequence (Q7FAS1 1-367)
notes: complete ORF, N-terminal 6xHis tag kept, expressed in Saccharomyces cerevisiae INVSc1, Ni-IDA purified, subunit about 40 kDa

Experiments:
GLO4 = target: T1, GLO4; experiment: peroxidase-coupled H2O2 assay, […] nm; slope replot of Lineweaver-Burk; format: biochemical
GLO3 = target: T2, GLO3; experiment: as above; format: biochemical
GLO1 = target: T3, GLO1; experiment: as above; format: biochemical
GLO1 + 4 = target: T4, GLO1 + 4; experiment: as above; format: biochemical
purified protein [1] = substrate: C[C@H](O)C(=O)O; experiment: purified protein; settings: pH 7.8, 30 °C, 0.1 mM FMN
purified protein [2] = substrate: O=C(O)CO; experiment: purified protein; settings: pH 7.8, 30 °C, 0.1 mM FMN
purified protein [3] = substrate: O=C(O)[C@H](O)CO; experiment: purified protein; format: biochemical, Oryza sativa; settings: pH 7.8, 30 °C, 0.1 mM FMN
purified protein [4] = substrate: O=CC(=O)O; experiment: purified protein; format: biochemical, Oryza sativa; settings: pH 7.8, 30 °C, 0.1 mM FMN

| Molecule | Ki (GLO4) [mM] | Ki (GLO3) [mM] | Ki (GLO1) [mM] | Ki (GLO1 + 4) [mM] | Km (purified protein [1]) [mM] | Km (purified protein [2]) [mM] | Km (purified protein [3]) [mM] | Km (purified protein [4]) [mM] |
| --- | --- | --- | --- | --- | --- | --- | --- | --- |
| O=C(O)C(=O)O [oxalate] | 6.34 ± 1.74 | 5.6 ± 1.23 | 4.57 ± 0.93 | 5.49 ± 1.04 |  |  |  |  |
| B1 |  |  |  |  | 5.128 ± 0.315 | 0.499 ± 0.041 | 4.976 ± 0.305 | 6.505 ± 0.412 |
| B2 |  |  |  |  | 5.227 ± 0.448 | 0.423 ± 0.038 | 4.511 ± 0.307 | 4.883 ± 0.321 |
| B3 |  |  |  |  | 4.720 ± 0.291 | 0.613 ± 0.050 | 4.367 ± 0.395 | 5.983 ± 0.333 |
| B4 |  |  |  |  | 1.104 ± 0.056 | 0.470 ± 0.035 | 2.762 ± 0.311 | 1.799 ± 0.084 |
